According to patent US20240035022A1:

Target: hCD52 peptide mimetope (affinity measurement of Table 1) (human)
Test: affinity on a hCD52 peptide mimetope, method not stated (footnote of Table 1)

Kd: 68 nM
Substance: Campath-1H (antibody)
